Patent US20200190194A1 (GlaxoSmithKline, published 2020)

T1: rabbit Fc-tagged recombinant extracellular human ICOS (human, UniProt Q9Y6W8 21-140)
T1 construct: also called dimeric human ICOS; not shown: rabbit Fc tag
T1 sequence: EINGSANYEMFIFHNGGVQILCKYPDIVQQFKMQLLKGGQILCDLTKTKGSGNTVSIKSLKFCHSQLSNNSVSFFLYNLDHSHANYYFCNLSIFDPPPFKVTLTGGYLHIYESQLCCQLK

T2: human ICOS ligand (B7-H2) (human, UniProt O75144 19-258, limits assumed)
T2 construct: it is treated as the same molecule; also called CD275; recombinant ICOS-L (R&D Systems)
T2 sequence (looked up): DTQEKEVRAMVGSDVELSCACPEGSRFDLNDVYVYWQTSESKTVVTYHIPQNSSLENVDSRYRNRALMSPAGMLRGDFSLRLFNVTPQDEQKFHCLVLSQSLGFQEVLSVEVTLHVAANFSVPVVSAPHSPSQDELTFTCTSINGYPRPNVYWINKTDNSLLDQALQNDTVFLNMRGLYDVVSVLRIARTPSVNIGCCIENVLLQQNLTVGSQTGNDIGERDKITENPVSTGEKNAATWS


How the values were obtained:
[1] = biological target: T1, rabbit Fc-tagged recombinant …; assay: SPR (Biacore), compared with human ICOS-L binding to dimeric human ICOS (FIG. 15B)
[2] = biological target: T2, human ICOS ligand (B7-H2); assay: flow cytometry competition: activated T cells pre-incubated with recombinant ICOS-L (B7-H2), then stained with H2L5; CD8+ cells

| fold higher affinity than the ICOS-L/ICOS interaction [1] [fold] | binding result [2] | Binder |
| --- | --- | --- |
| ~17 |  | H2L5 IgG4PE (antibody, V domains shown, Human IgG4 with Fc mutations S228P and L235E (EU numbering), called IgG4PE; humanized variant of murine clone 422.2; also called ICOS IgG4PE; H2L5 (ICOS) IgG4PE) VH: QVQLVQSGAEVKKPGSSVKVSCKASGYTFTDYAMHWVRQAPGQGLEWMGLISIYSDHTNYNQKFQGRVTITADKSTSTAYMELSSLRSEDTAVYYCGRNNYGNYGWYFDVWGQGTTVTVSS VL: EIVLTQSPATLSLSPGERATLSCSASSSVSYMHWYQQKPGQAPRLLIYDTSKLASGIPARFSGSGSGTDYTLTISSLEPEDFAVYYCFQGSGYPYTFGQGTKLEIK |
|  | binds | human ICOS on activated human T cells (receptor, the isoform 1 entry is named; also called cell surface ICOS; ICOS+ T cells (CD4, CD8, Treg)) EINGSANYEMFIFHNGGVQILCKYPDIVQQFKMQLLKGGQILCDLTKTKGSGNTVSIKSLKFCHSQLSNNSVSFFLYNLDHSHANYYFCNLSIFDPPPFKVTLTGGYLHIYESQLCCQLKFWLPIGCAAFVVVCILGCILICWLTKKKYSSSVHDPNGEYMFMRAVNTAKKSRLTDVTL |
